The labels stand for the following.
B1: Transforming acid coiled-coil-containing protein 1 (Caenorhabditis elegans), G5ECG0 (parent)
chain: MSLNTTFTKEDGTEVVIPFNGSQNGHPENEEPEVEEAAEPSSSVETLCGATRGDIIVMKHTTKALTELIERLLHSDEFEVRRCSNGQIISQGRCNGTTPGNGIGGGGASSEELEKALKDRDAARAEADKLHANYATLFASFNTVREAANDIRGEYEDARDKLKLAAAEVDEWQAKFLAVKDNANSELERASVEYDDLLRSHDENTKGLRLRVKRQEIELSSKNDEIKVLTNRVSELSQICDQLLNDVDVSDGMSVISTDA
partner: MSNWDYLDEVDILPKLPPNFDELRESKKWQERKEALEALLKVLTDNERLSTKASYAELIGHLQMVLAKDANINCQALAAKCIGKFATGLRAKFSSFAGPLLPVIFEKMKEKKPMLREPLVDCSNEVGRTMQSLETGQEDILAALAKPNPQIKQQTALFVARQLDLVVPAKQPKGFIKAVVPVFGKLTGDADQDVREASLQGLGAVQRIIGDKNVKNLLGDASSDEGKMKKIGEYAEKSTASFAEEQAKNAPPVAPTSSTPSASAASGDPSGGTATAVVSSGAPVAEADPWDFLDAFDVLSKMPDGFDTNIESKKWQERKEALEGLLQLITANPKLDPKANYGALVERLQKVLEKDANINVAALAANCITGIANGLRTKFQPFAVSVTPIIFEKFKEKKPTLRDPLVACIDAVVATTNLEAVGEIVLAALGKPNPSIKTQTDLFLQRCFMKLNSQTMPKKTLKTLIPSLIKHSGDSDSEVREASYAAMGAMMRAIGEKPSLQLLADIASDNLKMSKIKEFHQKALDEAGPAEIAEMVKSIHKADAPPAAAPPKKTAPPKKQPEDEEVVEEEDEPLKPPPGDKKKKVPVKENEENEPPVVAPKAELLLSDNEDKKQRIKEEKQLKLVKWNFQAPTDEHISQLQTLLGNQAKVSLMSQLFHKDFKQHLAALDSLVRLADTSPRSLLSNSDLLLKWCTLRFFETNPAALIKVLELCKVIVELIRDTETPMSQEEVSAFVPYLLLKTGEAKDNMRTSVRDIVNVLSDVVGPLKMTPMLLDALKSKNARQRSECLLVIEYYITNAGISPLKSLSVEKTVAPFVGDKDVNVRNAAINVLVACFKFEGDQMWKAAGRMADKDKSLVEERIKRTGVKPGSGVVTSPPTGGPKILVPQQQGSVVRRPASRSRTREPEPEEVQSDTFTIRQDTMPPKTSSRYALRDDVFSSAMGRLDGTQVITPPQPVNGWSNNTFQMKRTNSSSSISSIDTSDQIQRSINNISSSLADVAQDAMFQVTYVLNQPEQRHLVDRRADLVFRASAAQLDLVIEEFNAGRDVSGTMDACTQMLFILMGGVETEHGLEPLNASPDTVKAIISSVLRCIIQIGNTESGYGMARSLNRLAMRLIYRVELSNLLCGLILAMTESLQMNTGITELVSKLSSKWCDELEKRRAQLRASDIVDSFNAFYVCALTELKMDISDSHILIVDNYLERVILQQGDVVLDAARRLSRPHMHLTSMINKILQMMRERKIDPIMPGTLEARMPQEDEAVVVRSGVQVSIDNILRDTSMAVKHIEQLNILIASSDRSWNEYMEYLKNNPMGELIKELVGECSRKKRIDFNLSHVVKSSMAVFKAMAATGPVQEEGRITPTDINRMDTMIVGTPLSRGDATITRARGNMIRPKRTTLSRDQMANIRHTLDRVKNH
B2: Zygote defective protein 9 (Caenorhabditis elegans), G5EEM5 (parent)
chain: B1 partner
partner: B1 chain

Consider three variants from IntAct's records for PubMed 17666432.

In one assay the parent is B1. The note with it: with zyg9_caeel zyg-9, G5EEM5.
In the case of MSLNTTFTKEDGTEVVIPFNGSQNGHPENEEPEVEEAAEPSSSVETLCGATRGDIIVMKHTTKALTELIERLLHSDEFEVRRCSNGQIISQGRCNGTTPGNGIGGGGASSEELEKALKDRDAARAEADKLHANYATLFASFNTVREAANDIRGEYEDARDKLKLAAAEVDEWQAKFLAVKDNANSELERASVEYDDLLRSHDENTKGLRLRVKRQEIELSSKNDEIKVFTNRVSELSQICDQLLNDVDVSDGMSVISTDA [L229F], the “effect of a mutation on the interaction” value is recorded as “decreasing interaction”.

In a further assay the parent is B2. The settings on record: with tacc1_caeel tac-1, G5ECG0.
As to I862K, the “effect of a mutation on the interaction” value is “decreasing interaction”. On the same count and under the same terms, with E1317K the entry was “decreasing interaction”.
